This is an account of results in PMC12692541.

This series relates to HalTzlAAA homotrinucleopeptide (synthetic (designed)). As to the kind of experiment: fluorescence anisotropy. The note with it: none.

Sequence CCAGAGAGCCUGGGAGCUCUCUGG [ΔTAR] returned a Kd of 161 µM. In turn, CCAGAUUUGAGCCUGGGAGCUCUCUGG [TAR UUU] came in with a Kd of 30.1 µM.
